Data: PMC6061780 (Nucleic Acids Research, 2018)
Blank lines part the entries; values can stand above or below the binder they belong to.

Experiments:
Assay in all cases: ITC
[1] = molecular target: Sc eIF4G (residues V448–N500; C+L+NC)-GB1 (Saccharomyces cerevisiae, UniProt P39935 448-500)
[2] = molecular target: T1, Sc eIF4E (residues T25–L213), His6 tag removed (Saccharomyces cerevisiae, UniProt P07260 25-213)
T1 sequence (looked up): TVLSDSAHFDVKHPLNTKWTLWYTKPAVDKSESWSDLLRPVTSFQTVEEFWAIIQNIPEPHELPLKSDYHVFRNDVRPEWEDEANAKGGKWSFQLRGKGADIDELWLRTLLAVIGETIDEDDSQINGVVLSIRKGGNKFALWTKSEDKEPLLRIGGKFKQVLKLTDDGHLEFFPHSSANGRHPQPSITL

[3] = molecular target: T2, Sc eIF4E Δ34 (residues V35–L213), His6 tag removed (Saccharomyces cerevisiae, UniProt P07260 35-213)
T2 sequence (looked up): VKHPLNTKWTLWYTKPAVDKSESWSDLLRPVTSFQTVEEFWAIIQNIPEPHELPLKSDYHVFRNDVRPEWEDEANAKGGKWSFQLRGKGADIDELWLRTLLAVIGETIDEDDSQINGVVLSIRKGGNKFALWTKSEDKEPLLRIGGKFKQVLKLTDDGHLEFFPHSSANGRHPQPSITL

Kd [1]: 1020 ± 90 nM
B1: Sc eIF4E II-AA lateral surface mutant, His6 tag removed (ITC) (domain or fragment)
chain: GPHMTVLSDSAHFDVKHPLNTKWTLWYTKPAVDKSESWSDLLRPVTSFQTVEEFWAAIQNAPEPHELPLKSDYHVFRNDVRPEWEDEANAKGGKWSFQLRGKGADIDELWLRTLLAVIGETIDEDDSQINGVVLSIRKGGNKFALWTKSEDKEPLLRIGGKFKQVLKLTDDGHLEFFPHSSANGRHPQPSITL

Kd [2]: 1000 ± 100 nM
Binder: SASYEEDPLISELVRSLPKRKFWRLRMG (domain or fragment, Saccharomyces cerevisiae, UniProt P36041 123-150, looked up) [Sc Eap1p L+NC fragment (residues S123–G150)-GB1]

Kd [2]: 3400 ± 300 nM
Binder: GPHMDLQYKTYAYSMNELYHLKPSLA (domain or fragment) [Sc Eap1p canonical motif (C)-GB1]

Kd [2]: 8 ± 4 nM
Binder: KKTAMLNFSSLTDPITNYKPMDLQYKTYAYSMNELYHLKPSLA (domain or fragment, Saccharomyces cerevisiae, UniProt P36041 80-122, looked up) [Sc Eap1p (residues K80–A122; N+C peptide)-GB1]

Kd [2]: 12.9 ± 0.9 nM
Kd [3]: 8.8 ± 0.5 nM
Binder: TDPITNYKPMDLQYKTYAYSMNELYHLKPSLA (domain or fragment, Saccharomyces cerevisiae, UniProt P36041 91-122, looked up) [Sc Eap1p (T91–A122; N_(short)+C)-GB1]
